1 molecule from doi:10.1101/2025.11.23.690026, “A systematic interactome of SET1C expands its functional landscape and identifies candidate regulatory connections” (bioRxiv, 2025) can be followed below.

The experiment concerns the target T1, reconstituted SET1C (S. cerevisiae, UniProt P38827 1-1080; P39706 1-426; P36104 1-329; P38123 1-315; P43132 1-505; Q03323 …).
T1 construct: Set1, S. cerevisiae (FLAG-Set1); Swd1, untagged subunit; Swd2, untagged subunit; Swd3, untagged subunit; Bre2, untagged subunit; Sdc1, untagged subunit; Spp1, untagged subunit; Shg1, untagged subunit; also called full-length SET1C; purified SET1C; source: Sf9, coinfected with baculoviruses, purified (M2 agarose); copies: + + + + + + +
As to the kind of experiment: pull-down; GST-tagged Snf2 fragments (250 nM) with SET1C or C762SET1C (25 nM) on glutathione-Sepharose 4B, 0.2 mg/ml BSA, 20 mM Tris-Cl pH 7.9, 150 mM NaCl, 0.1% NP-40, 4 C, 3 hours; immunoblot. As to conditions: both partners purified. On the technique in general: Immunoblotting shows a protein as a band on a membrane.

B1: GST-Snf2C-AT-hook (domain or fragment, S. cerevisiae, UniProt P22082 1384-1547, looked up)
chain: ARKQRTKKEDKSEAIDGNGEIKGENIDADNDGPRINNISAEDRADTDLAMNDDDFLSKKRKAGRPRGRPKKVKLEGSENSEPPALESSPVTGDNSPSEDFMDIPKPRTAGKTSVKSARTSTRGRGRGRGRGRGRGRGRGRPPKARNGLDYVRTPAAATSPIDIR
notes: Snf2, S. cerevisiae, AT-hook region 1384-1547; also called Snf2-AT-hook; GST-Snf2-AT-hook; source: recombinant, purified GST fusion (E. coli BL21 by the general methods)
As to B1, the binding result was “binds”.
